As usually defined, the Kd is a measure of binding affinity in units of concentration. For orientation: stoichiometry N means the number of molecules, sites or subunits per partner or assembly.

The target of this assay is Cav1(62-178) P132L (UniProt Q03135). The experiment in a line: AUC.

“Cav1(62-178) P132L (from UniProt Q03135 62-178) (domain or fragment)” came in with a Kd below 15 nM and a stoichiometry N of 2.
